The values that follow come from article PMC6736072 (Nucleic Acids Research, 2019).

This experiment deals with T1, His-MAD1 (recombinant, not phosphorylated by ULK1) (human, UniProt Q9Y6D9 1-718).
T1 sequence: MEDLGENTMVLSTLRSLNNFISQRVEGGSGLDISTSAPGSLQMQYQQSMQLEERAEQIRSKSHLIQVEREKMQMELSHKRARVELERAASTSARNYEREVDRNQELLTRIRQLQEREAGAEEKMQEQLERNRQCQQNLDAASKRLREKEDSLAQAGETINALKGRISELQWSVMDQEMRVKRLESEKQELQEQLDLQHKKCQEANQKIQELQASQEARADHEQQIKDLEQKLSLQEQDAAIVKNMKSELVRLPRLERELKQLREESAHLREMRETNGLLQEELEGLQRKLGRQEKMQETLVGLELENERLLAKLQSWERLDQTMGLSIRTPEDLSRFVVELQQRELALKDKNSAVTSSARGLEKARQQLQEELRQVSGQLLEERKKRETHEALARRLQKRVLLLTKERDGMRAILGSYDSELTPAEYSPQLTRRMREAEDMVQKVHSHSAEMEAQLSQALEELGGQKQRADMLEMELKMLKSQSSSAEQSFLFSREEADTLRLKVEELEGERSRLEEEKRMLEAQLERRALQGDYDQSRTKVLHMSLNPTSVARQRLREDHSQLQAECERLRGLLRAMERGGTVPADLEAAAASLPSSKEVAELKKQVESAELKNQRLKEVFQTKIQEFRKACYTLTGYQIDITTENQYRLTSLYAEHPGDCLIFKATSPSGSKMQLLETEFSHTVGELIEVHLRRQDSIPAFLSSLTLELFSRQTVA
The experiment in a line: pull-down.

B1: human FLAG-BUB1-(437-509), phosphorylated in vitro (domain or fragment)
chain: SFHTTPNTSLGMVQATPSKVQPSPTVHTKEALGFIMNMFQAPTLPDISDDKDEWQSLDQNEDAFEAQFQKNVR
For the molecule B1, the binding result is listed as “binds”.
